Test results reported in publication PMC9758056 (2022).

Molecular target: Taxol-stabilized microtubules from bovine tubulin, labeled with Alexa Fluor 488 and biotin, tethered to a … (bovine, UniProt Q6B856 1-445, part of the tubulin biotinylated, part labeled with Alexa Fluor 488 (10% biotin-tubulin and 10% Alexa 488-tubulin) | part of the tubulin biotinylated, part labeled with Alexa Fluor 488 (10% …))
Sequence (chain, as listed by the source, chain 1 of 2): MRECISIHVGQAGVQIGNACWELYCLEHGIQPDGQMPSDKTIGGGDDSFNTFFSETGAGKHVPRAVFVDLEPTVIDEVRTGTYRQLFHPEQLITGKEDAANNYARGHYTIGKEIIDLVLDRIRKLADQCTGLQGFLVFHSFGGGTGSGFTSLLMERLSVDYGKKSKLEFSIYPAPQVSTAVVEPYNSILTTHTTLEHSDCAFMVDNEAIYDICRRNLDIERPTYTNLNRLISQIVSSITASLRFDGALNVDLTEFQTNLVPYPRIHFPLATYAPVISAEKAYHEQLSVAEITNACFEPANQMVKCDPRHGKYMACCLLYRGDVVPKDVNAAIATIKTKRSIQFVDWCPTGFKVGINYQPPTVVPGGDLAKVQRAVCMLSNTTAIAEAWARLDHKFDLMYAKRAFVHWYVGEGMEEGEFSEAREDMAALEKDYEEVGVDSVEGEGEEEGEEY
Sequence (Q6B856 whole entry, chain 2 of 2): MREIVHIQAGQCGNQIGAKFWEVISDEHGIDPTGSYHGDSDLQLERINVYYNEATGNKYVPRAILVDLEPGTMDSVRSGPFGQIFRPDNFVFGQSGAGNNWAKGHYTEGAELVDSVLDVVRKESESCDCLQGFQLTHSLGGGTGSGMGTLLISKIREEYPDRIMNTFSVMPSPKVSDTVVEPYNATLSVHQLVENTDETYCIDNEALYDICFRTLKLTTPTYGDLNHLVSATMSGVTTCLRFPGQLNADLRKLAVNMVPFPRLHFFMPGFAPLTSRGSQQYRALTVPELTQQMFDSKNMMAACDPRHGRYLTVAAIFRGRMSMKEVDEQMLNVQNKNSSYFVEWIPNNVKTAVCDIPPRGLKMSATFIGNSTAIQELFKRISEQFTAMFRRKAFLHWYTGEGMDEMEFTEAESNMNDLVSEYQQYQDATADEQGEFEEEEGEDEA

B1: TMR-LRRK2^RCKW (LRRK2^RCKW randomly labeled with BODIPY TMR-X) (domain or fragment)
chain: KKAVPYNRMKLMIVGNTGSGKTTLLQQLMKTKKSDLGMQSATVGIDVKDWPIQIRDKRKRDLVLNVWDFAGREEFYSTHPHFMTQRALYLAVYDLSKGQAEVDAMKPWLFNIKARASSSPVILVGTHLDVSDEKQRKACMSKITKELLNKRGFPAIRDYHFVNATEESDALAKLRKTIINESLNFKIRDQLVVGQLIPDCYVELEKIILSERKNVPIEFPVIDRKRLLQLVRENQLQLDENELPHAVHFLNESGVLLHFQDPALQLSDLYFVEPKWLCKIMAQILTVKVEGCPKHPKGIISRRDVEKFLSKKRKFPKNYMSQYFKLLEKFQIALPIGEEYLLVPSSLSDHRPVIELPHCENSEIIIRLYEMPYFPMGFWSRLINRLLEISPYMLSGRERALRPNRMYWRQGIYLNWSPEAYCLVGSEVLDNHPESFLKITVPSCRKGCILLGQVVDHIDSLMEEWFPGLLEIDICGEGETLLKKWALYSFNDGEEHQKILLDDLMKKAEEGDLLVNPDQPRLTIPISQIAPDLILADLPRNIMLNNDELEFEQAPEFLLGDGSFGSVYRAAYEGEEVAVKIFNKHTSLRLLRQELVVLCHLHHPSLISLLAAGIRPRMLVMELASKGSLDRLLQQDKASLTRTLQHRIALHVADGLRYLHSAMIIYRDLKPHNVLLFTLYPNAAIIAKIADYGIAQYCCRMGIKTSEGTPGFRAPEVARGNVIYNQQADVYSFGLLLYDILTTGGRIVEGLKFPNEFDELEIQGKLPDPVKEYGCAPWPMVEKLIKQCLKENPQERPTSAQVFDILNSAELVCLTRRILLPKNVIVECMVATHHNSRNASIWLGCGHTDRGQLSFLDLNTEGYTSEEVADSRILCLALVHLPVEKESWIVSGTQSGTLLVINTEDGKKRHTLEKMTDSVTCLYCNSFSKQSKQKNFLLVGTADGKLAIFEDKTVKLKGAAPLKILNIGNVSTPLMCLSESTNSTERNVMWGGCGTKIFSFSNDFTIQKLIETRTSQLFSYAAFSDSNIITVVVDTALYIAKQNSPVVEVWDKKTEKLCGLIDCVHFLREVMVKENKESKHKMSYSGRVKTLCLQKNTALWIGTGGGHILLLDLSTRRLIRVIYNFCNSVRVMMTAQLGSLKNVMLVLGYNRKNTEGTQKQKEIQSCLTVWDINLPHEVQNLEKHIEVRKELAEKMRRTSVE
modifications: BODIPY TMR-X on primary amines, randomly labeled (dye added 1:1)
Kd: ~40 nM
